Source: the Human Domainome abundance scans (Beltran et al. 2025)

B1: Ubiquitin-protein ligase residues 30 to 86; numbered along this chain, Q05086 (parent)
chain: KHLIERYYHQLTEGCGNEACTNEFCASCPTFLRMDNNAAAIKALELYKINAKLCDPH

Variants of: B1
Experiment: abundance fitness (aPCA) (normalised: wild type 0, dead -1); higher = more abundant; growth selection in yeast, the domain comes from the species named
Conditions: Homo sapiens

Abundance fitness of substitutions, site by site:
N50: C -0.057; L -0.143; T -0.006; G -0.019; W -0.31; P -0.041; I -0.356; K -0.095; H -0.05; E -0.041; A 0.004; R -0.033; Y -0.018; Q -0.11; S 0.023; D 0.034; V -0.158
E45: S -0.067; F -0.221; C -0.276; T -0.288; M -0.181; K -0.129; H -0.184; W -0.372; G -0.069; Q -0.129; N 0.11; P -0.873; R -0.064; D -0.199; Y -0.217; A -0.087
D55: A -0.043; C -0.099
K42: C -0.282; L -0.211; W -0.293; V -0.392; I -0.498; T -0.157; N -0.198; M -0.269; S -0.178; E -0.109; A -0.184; H -0.109; G -0.343; Q -0.085; F -0.408; P -0.735; R -0.023
K48: D 0.009; P -0.222; G -0.188; S -0.161; C -0.427; M -0.424; R -0.072; N 0.012; Q -0.109; A -0.17; W -0.357; F -0.682; H -0.111; I -0.607; L -0.388; Y -0.438; E -0.058; V -0.455; T -0.122
R33: Y -0.19; K 0.033; N -0.109; V -0.013; F -0.415; S -0.041; L -0.148; H -0.109; T -0.025; I -0.1; C -0.152; E -0.011; M -0.145; A -0.099; D -0.245; G 0.014; P -0.017; W -0.294
I49: L -0.043; T 0.003
L32: Y -0.233; T 0.098; W -0.193; V 0.009
N37: S -0.072; K -0.107; H -0.075; D 0.044; A 0.018; C -0.17; F -0.542; R -0.086; Q -0.016; M -0.186; P -0.107; W -0.454; T -0.015
M34: F -0.061; N -0.279; L -0.002; P -0.042; Y -0.035; V -0.023; E -0.053; H -0.095; Q -0.074; K -0.23; S -0.042; A -0.029; G -0.117; I 0.054; W -0.183; T -0.129; R -0.102
A38: L 0.025; W -0.142; R 0.005; C -0.083; K -0.044; N -0.213; H -0.19; P -0.006; Q -0.106; Y 0.08; T -0.07; M -0.164; E -0.108; I -0.166; G -0.191; D -0.295; V 0.029
K52: S -0.31; W -0.437; R -0.052
N36: K 0.013; Y -0.308; R 0.055; G -0.036; E 0.007; S 0.044; F -0.046; I -0.11; V -0.03; C -0.019; W -0.239; H -0.152; Q -0.005; T -0.027; A -0.042; L -0.005; M -0.181
A43: V -0.221; G -0.156; C -0.098; F -1.06; L -0.826; E -0.894; P -0.467; H -0.987; I -0.92; W -0.989; K -0.242; N -0.768; D -0.856; M -0.321; S 0.027; R -0.717
A40: N 0.041; Q -0.015; G 0.046; D 0.025; W -0.04; S 0.037; Y -0.192; P -0.171; E 0.159; I -0.242; T 0.08; F -0.194; K -0.023; L -0.083; C 0.067
L46: Q -0.17; F -0.063; T -0.278; Y -0.312; G -0.178; N -0.341; E -0.514; W -0.401; D -0.389; M -0.13; K -0.754; A -0.107; S -0.095; H 0.035; I -0.056; P -0.528; C -0.029; V -0.06
I41: V 0.01; S 0.035; Q 0.075; H 0.064; C -0.028; P -0.069; W -0.239; M -0.053; T -0.013; E 0.029; Y -0.123; A 0.012; K 0.08; D 0.024; G 0.001; L -0.072; R 0
Y47: S 0.084; L 0.027; P -0.05; A 0.088; T 0.073; F 0.108; V 0.06; C 0.031; N 0.012; R 0.05; H 0.088; G 0.008; Q -0.03; I -0.094; K 0.031; W -0.085
L44: A 0.057; T 0.118; D 0.042; F -0.122; H -0.096; W -0.16; I 0.173; C -0.032; N 0.013; S 0.051; P 0.059; G 0.057; R 0.074; K 0.108; V 0.017; Y 0.131
L53: T -0.109; W -0.164; H -0.191; G -0.199; P -0.23; A -0.098; C -0.14; I -0.032; S -0.097; Y -0.062; N -0.433; E -0.068; Q 0.04; M -0.073; F -0.048; V -0.056; D -0.353; K -0.071
A39: M -0.065; N -0.242; F -0.249; T -0.065; G -0.084; L -0.096; E -0.393; Q -0.317; R -0.053; W -0.375; I -0.085; H -0.228; V -0.084; Y -0.239; K -0.175; D -0.605
C54: F -0.448; S -0.076; Y -0.94
A51: Y -0.195; M -0.189; L -0.463; Q -0.289; C -0.151; P -0.35; F -0.053; V -0.082; I -0.45; G -0.075; S -0.012; E -0.102; K -0.093; W -0.029; H -0.147; D -0.052; T -0.02; N -0.152
D35: G -0.039; E -0.026; T -0.112; F -0.265; R -0.095; V -0.187; Q -0.084; M -0.058; W -0.308; L -0.091; H -0.213; A -0.067; C -0.133; K -0.199; I -0.177; S -0.022; P -0.135; Y -0.333; N -0.094
